Usually Kd stands for the equilibrium constant for the complex coming apart. Low readings indicate higher affinity, high ones lower affinity.

Test [1] deals with 24P4C12 (human) (UniProt Q53GD3). The test can be described thus: FACS on LNCaP cells, ADC at 160.000 nM.
The target is the same in test [2]. The test can be described thus: FACS on LNCaP cells, ADC at 0.033 nM.
Test [3] shares this target. Kind of test: FACS on LNCaP cells, ADC at 2.634 nM.
The target is the same in test [4]. Kind of test: FACS on LNCaP cells, ADC at 0.011 nM.
For test [5] the target is unchanged. Kind of test: FACS saturation binding on LNCaP cells (endogenous 24P4C12), one site fit.
Test [6] has the same target. The test can be described thus: FACS on LNCaP cells, ADC at 0.878 nM.
Test [7] has the same target. Kind of test: FACS on LNCaP cells, ADC at 0.098 nM.
For test [8] the target is unchanged. Kind of test: FACS on LNCaP cells, ADC at 23.704 nM.
Test [9] shares this target. Kind of test: FACS on LNCaP cells, ADC at 0.293 nM.
Test [10] shares this target. The test can be described thus: FACS on LNCaP cells, ADC at 71.111 nM.
The target is the same in test [11]. The test can be described thus: FACS on LNCaP cells, ADC at 106.667 nM.
Test [12] has the same target. Kind of test: FACS on LNCaP cells, ADC at 7.901 nM.

Chain of UniProt Q53GD3 (Q53GD3 whole entry): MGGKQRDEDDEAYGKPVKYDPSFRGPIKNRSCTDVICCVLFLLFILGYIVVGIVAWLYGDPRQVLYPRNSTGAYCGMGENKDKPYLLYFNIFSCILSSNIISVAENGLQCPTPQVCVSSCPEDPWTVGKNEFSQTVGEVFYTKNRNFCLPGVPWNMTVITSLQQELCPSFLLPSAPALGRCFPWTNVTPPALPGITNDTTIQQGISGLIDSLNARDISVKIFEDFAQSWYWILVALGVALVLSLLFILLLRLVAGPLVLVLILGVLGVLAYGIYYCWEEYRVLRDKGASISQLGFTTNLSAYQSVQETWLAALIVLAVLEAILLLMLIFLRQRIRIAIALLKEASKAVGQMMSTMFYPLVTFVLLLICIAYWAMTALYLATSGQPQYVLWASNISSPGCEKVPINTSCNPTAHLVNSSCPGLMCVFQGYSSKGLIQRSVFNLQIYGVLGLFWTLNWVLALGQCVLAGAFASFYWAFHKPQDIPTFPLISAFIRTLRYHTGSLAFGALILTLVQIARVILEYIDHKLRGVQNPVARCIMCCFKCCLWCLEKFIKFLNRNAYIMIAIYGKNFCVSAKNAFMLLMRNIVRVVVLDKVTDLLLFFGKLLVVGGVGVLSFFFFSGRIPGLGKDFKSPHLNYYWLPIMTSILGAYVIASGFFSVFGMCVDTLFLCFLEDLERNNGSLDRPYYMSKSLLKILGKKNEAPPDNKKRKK

B1: Ha5-1(5)2.1vcMMAE (protein)
heavy: QVQLVESGGGVVQPGRSLRLSCAASGFTFSSYGMHWVRQAPGKGLEWVAVMSYDGSKKFYTDSVKGRFTISRDNSKNTLYLQMNSLRAEDTAVYYCARDGGDYVRYHYYGMDVWGQGTTVTVSSASTKGPSVFPLAPCSRSTSESTAALGCLVKDYFPEPVTVSWNSGALTSGVHTFPAVLQSSGLYSLSSVVTVPSSNFGTQTYTCNVDHKPSNTKVDKTVERKCCVECPPCPAPPVAGPSVFLFPPKPKDTLMISRTPEVTCVVVDVSHEDPEVQFNWYVDGVEVHNAKTKPREEQFNSTFRVVSVLTVVHQDWLNGKEYKCKVSNKGLPAPIEKTISKTKGQPREPQVYTLPPSREEMTKNQVSLTCLVKGFYPSDIAVEWESNGQPENNYKTTPPMLDSDGSFFLYSKLTVDKSRWQQGNVFSCSVMHEALHNHYTQKSLSLSPGK
light: DIQMTQSPSTLSASIGDRVTITCRASQGISYYLAWYQQKPGKIPKLLIYDTSSLQSGVPSRFSGSRSGTDLSLTISSLQPEDVATYYCQRYDSAPLTFGGGTKVEIKRTVAAPSVFIFPPSDEQLKSGTASVVCLLNNFYPREAKVQWKVDNALQSGNSQESVTEQDSKDSTYSLSSTLTLSKADYEKHKVYACEVTHQGLSSPVTKSFNRGEC
modifications: vcMMAE (Val-Cit linker, monomethyl auristatin E) on cysteine thiols after partial TCEP reduction; p about 3.6 per antibody; positions not given
For B1, the MFI with 24P4C12 (human) [1] came out at 116 MFI; in the test with 24P4C12 (human) [2] it was 9 MFI; with 24P4C12 (human) [3], 70 MFI; in the test with 24P4C12 (human) [4] it was 7 MFI; with 24P4C12 (human) [6] it was 54 MFI; with 24P4C12 (human) [7], 15 MFI. Also, the MFI worked out at 97 MFI with 24P4C12 (human) [8]; 28 MFI in the test with 24P4C12 (human) [9]; 108 MFI with 24P4C12 (human) [10]; 114 MFI with 24P4C12 (human) [11]; 86 MFI with 24P4C12 (human) [12]. In the test with 24P4C12 (human) [5], this molecule had a Kd of 1.05 nM.
